{"source": "paper PMC3399765", "about": "(2011)", "target": "SMB20 peptide (Homo sapiens, UniProt P14678)", "assay": "ITC"}
{"binder": "FBP21 WW domains (protein) DPSKGRWVEGITSEGYHYYYDLISGASQWEKPEGFQGDLKKTAVKTVWVEGLSEDGFTYYYNTETGESRWEKPDD", "values": [{"measurement": "Kd", "value": 16.4, "unit": "µM"}]}
